Measured values from patent publication US20250075249A1 (QUEENSLAND UNIVERSITY OF TECHNOLOGY, published 2025).

Tests used:
Experiment in all cases: cell-based or functional assay
[1] = molecular target: FKBP-2CaM-Tre-FKBP fusion protein
FKBP-2CaM-BLA-FKBP = molecular target: FKBP-2CaM-BLA-FKBP
[2] = molecular target: Tre G104_P321 CaM chimera

Binder | apparent Kd from titration with rapamycin (small molecule varied; 100 nM 2FKBP-Tre-2CaM, 200 nM FRB-CaM-BP; trehalase activity) [1] | apparent Kd from titration with rapamycin (small molecule varied; 25 nM BLA-2CaM-2FKBP, 100 nM FRB-CaM-BP; β-lactamase activity) (FKBP-2CaM-BLA-FKBP) | EC50 (read off the curve) [2]
FRB-CaM-BP (fusion of FRB and a low affinity calmodulin binding peptide) (other) AHHHHHHSSGTRVAILWHEMWHEGLEEASRLYFGERNVKGMFEVLEPLHAMMERGPQTLKETSFNQAYGRDLMEAQEWCRKYMKSGNVKDLTQAWDLYYHVFRRISGGSGGSGSGSGGSGGKRRWKKNFIAVSAANR | 89 nM | 11 nM | 
KRRWKKNFIAVSAANRFKKISSSGAL (peptide, UniProt P07313 578-603, looked up) [M13 calmodulin binding peptide] |  |  | ~60 nM
